The record followed here is patent publication US20160009782A1 (Stanford University, published 2016).

Assay [1] addresses T1, oligomerized synthetic human Aβ1-42 peptide (oligo-Aβ42) (human, N-terminal biotin (biotinylated peptide used in the cell, neuron and streptavidin pull-down assays)).
T1 construct: Soluble oligomer mixture, mainly high-n oligomers; About 10-20% stays as monomer or low-n oligomer; Concentrations are monomer equivalents of total peptide; this is probably a misprint, since the peptide used was bought as human Aβ1-42; Both biotinylated and non-biotinylated peptides were obtained; also called Aβ42 oligomers; oligomerized Aβ42
The assay can be described thus: oligo-Aβ42 on transfected HEK293 cells, fluorescence, control-vector cells subtracted. The source says: Bottom: bar graphs of average band intensities±SEM from experiments such as that shown in FIG. 10C (n=3; see also FIG. 2H). […] Top, right: Western blot with anti-Aβ antibodies specific for oligomeric forms (OMAB; see FIG. 10D); Bottom, left: quantification of Aβ42 binding. Normalized average band intensities±SEM (n=3).
(§1) The bound Aβ peptides were visualized with streptavidin-Alexa fluorophore conjugates (Alexa 488, 598 or 647; wavelength choice depending on experiments) (J. Lauren, et al. (2009) “Cellular prion protein mediates impairment of synaptic plasticity by amyloid-beta oligomers.” Nature 457, 1128). […] Fluorescent images were captured with fixed illumination and exposure time using a Nikon 20× objective of numerical aperture 0.75, and then fluorescence intensity was quantified using ImageJ software (NIH). In each experiment, values from control vector transfected cells were used as background, and subtracted from those of experimental cells.

Assay [2] addresses T1, oligomerized synthetic human Aβ1-42 …. The assay can be described thus: Aβ42 oligomers pulled down with purified Fc fusion protein, Western blot for Aβ, normalised band intensity (n=3). The text has this:
Data are mean±SEM (n=5). […] Mean±SEM. […] Bottom: bar graphs of average band intensities±SEM from experiments such as that shown in FIG. 10C (n=3; see also FIG. 2H). […] Top, right: Western blot with anti-Aβ antibodies specific for oligomeric forms (OMAB; see FIG. 10D); Bottom, left: quantification of Aβ42 binding. Normalized average band intensities±SEM (n=3).
Background: In western blotting, separated proteins are transferred to a membrane and probed.

The target is the same in assay [3]. In words: oligomerized Aβ42 immunoprecipitated with soluble Fc fusion protein, Western blot α-Aβ (4G8) and α-oligo Aβ (OMAB). The source says: Mean±SEM. […] Bottom: bar graphs of average band intensities±SEM from experiments such as that shown in FIG. 10C (n=3; see also FIG. 2H). […] Top, right: Western blot with anti-Aβ antibodies specific for oligomeric forms (OMAB; see FIG. 10D); Bottom, left: quantification of Aβ42 binding. Normalized average band intensities±SEM (n=3).
The Aβ signals were quantified as described above.

The target is the same in assay [4]. The assay can be described thus: Aβ42 oligomers on transfected HEK293 cells, fluorescence staining.
Description: as §1

Assay [5] has the same target. The assay can be described thus: synthetic Aβ42 oligomers immunoprecipitated with PirB-Fc proteins, Western blot α-Aβ (6E10), fully reduced.

B1: human killer immune receptor Kir (3DL1) expressed in HEK293 cells (receptor, UniProt P43629 22-444, looked up)
chain: HMGGQDKPFLSAWPSAVVPRGGHVTLRCHYRHRFNNFMLYKEDRIHIPIFHGRIFQESFNMSPVTTAHAGNYTCRGSHPHSPTGWSAPSNPVVIMVTGNHRKPSLLAHPGPLVKSGERVILQCWSDIMFEHFFLHKEGISKDPSRLVGQIHDGVSKANFSIGPMMLALAGTYRCYGSVTHTPYQLSAPSDPLDIVVTGPYEKPSLSAQPGPKVQAGESVTLSCSSRSSYDMYHLSREGGAHERRLPAVRKVNRTFQADFPLGPATHGGTYRCFGSFRHSPYEWSDPSDPLLVSVTGNPSSSWPSPTEPSSKSGNPRHLHILIGTSVVIILFILLLFFLLHLWCSNKKNAAVMDQEPAGNRTANSEDSDEQDPEEVTYAQLDHCVFTQRKITRPSQRPKTPPTDTILYTELPNAKPRSKVVSCP
notes: whole, on cells
On to B1, for which the binding result in assay [1] is reported as “no binding (tested: 200 nM)”.

B2: LilrB2 (D3D4)-Fc, LilrB2 residues 219-458 fused to human IgG1-Fc (Fc fusion)
chain: PGVSKKPSLSVQPGPVVAPGESLTLQCVSDVGYDRFVLYKEGERDLRQLPGRQPQAGLSQANFTLGPVSRSYGGQYRCYGAHNLSSECSAPSDPLDILITGQIRGTPFISVQPGPTVASGENVTLLCQSWRQFHTFLLTKAGAADAPLRLRSIHEYPKYQAEFPMSPVTSAHAGTYRCYGSLNSDPYLLSHPSEPLELVVSGPSMGSSPPPTGPISTPAGPEDQPLTPTGSDPQSGLGRH
notes: not shown: human IgG1-Fc from the pFUSE-hIgG1e3-Fc2 vector (InvivoGen); exact limits, linker and any engineered changes are not sta
In the case of B2, the binding result in assay [2] is listed as “no binding”.

B3: PirB (D5D6)-Fc, PirB residues 419-643 fused to human IgG1-Fc (Fc fusion)
chain: GLSKKPSLLTHQGHILDPGMTLTLQCFSDINYDRFALHKVGGADIMQHSSQQTDTGFSVANFTLGYVSSSTGGQYRCYGAHNLSSEWSASSEPLDILITGQLPLTPSLSVQPNHTVHSGETVSLLCWSMDSVDTFILSKEGSAQQPLRLKSKSHDQQSQAEFSMSAVTSHLSGTYRCYGAQDSSFYLLSSASAPVELTVSGPIETSTPPPTMSMPLGGLHMYLKA
notes: Used as the negative control in the pull-down assays; not shown: human IgG1-Fc from the pFUSE-hIgG1e3-Fc2 vector (InvivoGen); exact limits, linker and any engineered changes are not sta
On to B3, for which, in assay [3], the binding result is “no binding”.

B4: human LilrB1 expressed in HEK293 cells (receptor, UniProt Q8NHL6 24-650, looked up)
chain: GHLPKPTLWAEPGSVITQGSPVTLRCQGGQETQEYRLYREKKTALWITRIPQELVKKGQFPIPSITWEHAGRYRCYYGSDTAGRSESSDPLELVVTGAYIKPTLSAQPSPVVNSGGNVILQCDSQVAFDGFSLCKEGEDEHPQCLNSQPHARGSSRAIFSVGPVSPSRRWWYRCYAYDSNSPYEWSLPSDLLELLVLGVSKKPSLSVQPGPIVAPEETLTLQCGSDAGYNRFVLYKDGERDFLQLAGAQPQAGLSQANFTLGPVSRSYGGQYRCYGAHNLSSEWSAPSDPLDILIAGQFYDRVSLSVQPGPTVASGENVTLLCQSQGWMQTFLLTKEGAADDPWRLRSTYQSQKYQAEFPMGPVTSAHAGTYRCYGSQSSKPYLLTHPSDPLELVVSGPSGGPSSPTTGPTSTSGPEDQPLTPTGSDPQSGLGRHLGVVIGILVAVILLLLLLLLLFLILRHRRQGKHWTSTQRKADFQHPAGAVGPEPTDRGLQWRSSPAADAQEENLYAAVKHTQPEDGVEMDTRSPHDEDPQAVTYAEVKHSRPRREMASPPSPLSGEFLDTKDRQAEEDRQMDTEAAASEAPQDVTYAQLHSLTLRREATEPPPSQEGPSPAVPSIYATLAIH
notes: whole, on cells; not shown: C-terminal Myc tag
As for B4, in assay [4], the binding result was “no binding (tested: 200 nM)”.

B5: D3D6 (PirB-Fc) (Fc fusion)
chain: GNLQKPTIKAEPGSVITSKRAMTIWCQGNLDAEVYFLHNEKSQKTQSTQTLQEPGNKGKFFIPSVTLQHAGQYRCYCYGSAGWSQPSDTLELVVTGIYEYYEPRLSVLPSPVVTAGGNMTLHCASDFPYDKFILTKEDKKFGNSLDTEHISSSGQYRALFIIGPTTPTHTGAFRCYGYYKNAPQLWSVPSALQQILISGLSKKPSLLTHQGHILDPGMTLTLQCFSDINYDRFALHKVGGADIMQHSSQQTDTGFSVANFTLGYVSSSTGGQYRCYGAHNLSSEWSASSEPLDILITGQLPLTPSLSVQPNHTVHSGETVSLLCWSMDSVDTFILSKEGSAQQPLRLKSKSHDQQSQAEFSMSAVTSHLSGTYRCYGAQDSSFYLLSSASAPVELTVSGPIETSTPPPTMSMPLGGLHMYLKA
modifications: Fc-mediated homodimer; one chain given
notes: not in the list MOLECULES; also called PirB (D3D6)-Fc; PirB:221-643 (D3D6); not shown: human IgG1-Fc of vector pFUSE-hIgG1e3-Fc2 (InvivoGen) and the cloning-junction residues
As for B5, the binding result in assay [5] was “no binding”.
